From publication PMC4183369

Molecular target: gp59(C42)-Cy3, helicase loader protein of the T4 bacteriophage DNA replisome (bacteriophage T4) (UniProt P13342)
Assay: FRET or BRET

UniProt P13342, sequence (P13342 whole entry): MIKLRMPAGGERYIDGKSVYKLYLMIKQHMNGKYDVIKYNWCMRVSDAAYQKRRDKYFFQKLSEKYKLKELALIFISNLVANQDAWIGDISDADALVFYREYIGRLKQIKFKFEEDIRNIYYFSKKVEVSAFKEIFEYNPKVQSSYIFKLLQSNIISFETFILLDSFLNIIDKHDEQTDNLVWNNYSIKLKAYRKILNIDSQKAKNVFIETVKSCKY

With “Cy5-N-gp43(exo-), T4 gp43 polymerase (from UniProt P04415 1-898) (enzyme)” the duration of a single FRET event was greater than 80 s.
